Several values for one entry are separate records, joined by “and”; a condition that tells them apart may be missing. Identical values can stand only once.
B1: ERRγ LBD (ERRγ 229–458) homodimer (domain or fragment, UniProt P62508 229-458, looked up)
chain: PAKKPYNKIVSHLLVAEPEKIYAMPDPTVPDSDIKALTTLCDLADRELVVIIGWAKHIPGFSTLSLADQMSLLQSAWMEILILGVVYRSLSFEDELVYADDYIMDEDQSKLAGLLDLNNAILQLVKKYKSMKLEKEEFVTLKAIALANSDSMHIEDVEAVQKLQDVLHEALQDYEAGQHMEDPRRAGKMLMTLPLLRQTSTKAVQHFYNIKLEGKVPMHKLFLEMLEAKV
notes: also called ERR LBD; source: cloned in pET15b
B2: PGC-1α RID1 (122–235), wild type (domain or fragment, human, UniProt Q9UBK2 122-235, looked up)
chain: EASPSSMPDGTPPPQEAEEPSLLKKLLLAPANTQLSYNECSGLSTQNHANHNHRIRTNPAIVKTENSWSNKAKSICQQQKPQRRPCSELLKYLTTNDDPPHTKPTENRNSSRDK
modifications: 15N-labelled in the NMR experiments
notes: His6 is named only for RID2; source: cloned in pET24b
B3: ERRα LBD (ERRα-189-423) homodimer (domain or fragment, UniProt P11474 189-423, looked up)
chain: KTAAPVNALVSHLLVVEPEKLYAMPDPAGPDGHLPAVATLCDLFDREIVVTISWAKSIPGFSSLSLSDQMSVLQSVWMEVLVLGVAQRSLPLQDELAFAEDLVLDEEGARAAGLGELGAALLQLVRRLQALRLEREEYVLLKALALANSDSVHIEDAEAVEQLREALHEALLEYEAGRAGPGGGAERRRAGRLLLTLPLLRQTAGKVLAHFYGVKLEGKVPMHKLFLEMLEAMMD
notes: also called ERR LBD; source: cloned in pET24b
B4: short peptide encompassing motif L2 of PGC-1α (peptide)
chain: EAEEPSLLKKLLLAPANTQ
modifications: Peptide limits are not printed in the supplied text; 137-155 is the commonly used PGC-1α L2 peptide around motif 144-148. Termini unknown.
B5: short peptide encompassing motif L3 of PGC-1α (peptide)
chain: QQQKPQRRPCSELLKYLTTNDD
modifications: Peptide limits are not printed in the supplied text; taken from the PGC-1α L3 peptide crystallised with ERRα (PDB 3D24, cited in the supplement). Termini unknown.
B6: PGC-1α RID2 (122–285) (domain or fragment, human, UniProt Q9UBK2 122-285, looked up)
chain: EASPSSMPDGTPPPQEAEEPSLLKKLLLAPANTQLSYNECSGLSTQNHANHNHRIRTNPAIVKTENSWSNKAKSICQQQKPQRRPCSELLKYLTTNDDPPHTKPTENRNSSRDKCTSKKKSHTQSQSQHLQAKPTTLSLPLTPESPNDPKGSPFENKTIERTLS
modifications: 15N-labelled in the NMR experiments
notes: PGC-1α, human, residues 122-285, holds motifs L2 and L3; also called His6-tagged PGC-1α RID2; source: cloned in pET24b; not shown: His6, N-terminal, kept
B7: ERRα LBD (189-423) homodimer with uncleaved His6 tag (domain or fragment, UniProt P11474 189-423, looked up)
chain: B3 chain
notes: source: cloned in pET24b
B8: PGC-1α RID1 (122-235), wild type (domain or fragment, human, UniProt Q9UBK2 122-235, looked up)
chain: B2 chain
notes: for ITC, native PAGE and SEC-MALS no cleavage of the PGC-1α tag is told; 15N-labelled for NMR; source: E. coli BL21 (DE3), purified (HisTrap, SEC); not shown: His6, N-terminal, kept

Experiments:
[1] = target: ERRγ LBD (ERRγ 229-458) homodimer (UniProt P62508); assay: ITC; PGC-1α RID wild type or LxxLL mutant (340-580 µM) injected into 40-70 µM ERR in the cell; 20°C; 20 mM Hepes pH 7.5, 120 mM NaCl, 0.2 % glycerol; one set of sites model
[2] = target: ERRα LBD (ERRα-189-423) homodimer (UniProt P11474); assay: as above
PGC-1α NTD (1–285) = target: T1, PGC-1α NTD (1–285) (human, UniProt Q9UBK2 1-285); assay: SAXS; synchrotron solution scattering (X33 DESY, SWING SOLEIL), direct injection or SEC-coupled; free proteins and complexes; details: both partners purified
T1 construct: PGC-1α, human, residues 1-285, holds motifs L2 and L3; source: cloned in pET24b
T1 sequence (looked up): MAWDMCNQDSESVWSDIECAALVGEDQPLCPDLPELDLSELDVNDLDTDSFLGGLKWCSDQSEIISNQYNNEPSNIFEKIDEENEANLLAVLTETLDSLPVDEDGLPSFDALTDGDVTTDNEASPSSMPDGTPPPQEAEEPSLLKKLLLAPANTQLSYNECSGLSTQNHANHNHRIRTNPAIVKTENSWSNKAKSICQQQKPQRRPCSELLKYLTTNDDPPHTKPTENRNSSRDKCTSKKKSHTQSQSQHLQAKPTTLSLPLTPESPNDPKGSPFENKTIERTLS

[3] = target: the molecule itself; assay: native MS; ESI-TOF under non-denaturing conditions, 200 mM ammonium acetate, pH 7.4
[4] = target: B3; assay: ITC; MicroCal iTC200, 20°C, pH 7.5, one set of sites model; apparent; details: both partners purified
[5] = target: B1; assay: as above; details: both partners purified
[6] = target: the molecule itself; assay: SAXS; synchrotron solution scattering (X33 DESY, SWING SOLEIL), direct injection or SEC-coupled; free proteins and complexes
[7] = target: B3; assay: not stated; binding of short PGC-1α peptides to ERR LBDs; told only in the discussion; details: both partners purified
[8] = target: B1; assay: as above; details: both partners purified
[9] = target: B1; assay: native MS; ESI-TOF under non-denaturing conditions, 200 mM ammonium acetate, pH 7.4; details: both partners purified
[10] = target: B7; assay: as above; details: both partners purified
[11] = target: T2, ERRγ LBD (ERRγ 229-458) homodimer (UniProt P62508 229-458); assay: ITC; PGC-1α RID wild type or LxxLL mutant (340-580 µM) injected into 40-70 µM ERR in the cell; 20°C; 20 mM Hepes pH 7.5, 120 mM NaCl, 0.2 % glycerol; one set of sites model; details: both partners purified
T2 construct: Cloned in pET15b; The His6-tag of ERR was cleaved with thrombin for SAXS; nothing is said for ITC and native PAGE; also called ERR LBD; source: E. coli BL21 (DE3), purified (HisTrap, SEC)
T2 sequence (looked up): B1 chain

[12] = target: T3, ERRα LBD (ERRα-189-423) homodimer (UniProt P11474 189-423); assay: as above; details: both partners purified
T3 construct: The His6-tag of ERR was cleaved with thrombin for SAXS and left on ERRα for ESI-MS; nothing is said for ITC and native PAGE; also called ERR LBD; source: E. coli BL21 (DE3), purified (HisTrap, SEC)
T3 sequence (looked up): B3 chain

Molecule: PGC-1α RID1 L2m (LKKLL to LKKAA) (from UniProt Q9UBK2 122-235) (domain or fragment)
- stoichiometry N [1]: 0.605
- stoichiometry N [2]: 0.846

Molecule: PGC-1α RID1 L3m (LLKYL to AAKYL) (from UniProt Q9UBK2 122-235) (domain or fragment)
- stoichiometry N [1]: 0.793
- stoichiometry N [2]: 0.483

Molecule: B1
- binding result (PGC-1α NTD (1–285)): binds
- stoichiometry N [3]: 2

Molecule: B2
- Kd [4]: 71 ± 6 nM
- Kd [5]: 53 ± 3 nM

Molecule: B3
- stoichiometry N [6]: 2 and 6

Molecule: B4
- Kd [7]: 6100 nM
- Kd [8]: 1200 nM

Molecule: B5
- Kd [7]: 4100 nM
- Kd [8]: 1300 nM

Molecule: B6
- stoichiometry N [9]: 1 PGC-1α RID2 molecule per ERR homodimer
- stoichiometry N [10]: 1 PGC-1α RID2 molecule per ERR homodimer

Molecule: B7
- stoichiometry N [3]: 2

Molecule: B8
- stoichiometry N [11]: 0.932 ± 0.001
- stoichiometry N [12]: 0.94 ± 0.001

Source: article PMC3706463, “The Asymmetric Binding of PGC-1α to the ERRα and ERRγ Nuclear Receptor Homodimers Involves a Similar Recognition Mechanism” (PLoS ONE, 2013)
